{"source": "patent US20220241413A1", "about": "“COMBINATION THERAPIES USING CD-38 ANTIBODIES” (Takeda Pharmaceutical Company Limited, priority 2019, published 2022)", "origin": "cited, not measured here", "key": {"[1]": {"conditions": "cited from earlier work"}, "NK cells": {"tested_on": "NK cells", "conditions": "IV, patients with RRMM, doses up to 24 mg/kg; cited from earlier work"}, "[2]": {"conditions": "cited from earlier work", "remark": "listed apart in the source"}, "RBCs and platelets": {"tested_on": "RBCs and platelets", "conditions": "cited from earlier work"}, "[3]": {"conditions": "IV, patients with RRMM, doses up to 24 mg/kg; cited from earlier work"}, "[4]": {"conditions": "SC formulation with hyaluronidase"}}, "note": "Like-named read-outs stand apart in the source and are kept apart here.", "data": [{"substance": "MOR202: anti-CD38 IgG1 antibody, used clinically via IV infusion", "values": [{"measurement": "Grade ≥3 TEAE: hypertension", "setting": "[1]; RRMM, IV infusion", "value": 9, "unit": "%"}, {"measurement": "Grade ≥3 TEAE: leukopenia", "setting": "[1]; RRMM, IV infusion", "value": 11, "unit": "%"}, {"measurement": "Grade ≥3 TEAE: lymphopenia", "setting": "[1]; RRMM, IV infusion", "value": 18, "unit": "%"}, {"measurement": "TEAE at any grade: anemia", "setting": "[1]; RRMM, IV infusion", "value": 34, "unit": "%"}, {"measurement": "TEAE at any grade: fatigue", "setting": "[1]; RRMM, IV infusion", "value": 32, "unit": "%"}, {"measurement": "TEAE at any grade: infusion-related reactions (IRRs)", "setting": "[1]; RRMM, IV infusion", "value": 30, "unit": "%"}, {"measurement": "TEAE at any grade: leukopenia", "setting": "[1]; RRMM, IV infusion", "value": 30, "unit": "%"}, {"measurement": "TEAE at any grade: lymphopenia", "setting": "[1]; RRMM, IV infusion", "value": 25, "unit": "%"}, {"measurement": "TEAE at any grade: nausea", "setting": "[1]; RRMM, IV infusion", "value": 25, "unit": "%"}, {"measurement": "patients with Grade ≥3 TEAEs", "setting": "[1]; RRMM, IV infusion", "value": 64, "unit": "%"}, {"measurement": "infections", "setting": "[1]; in vivo, iv", "value": 59, "unit": "%"}]}, {"substance": "daratumumab: first approved anti-CD38 drug, anti-CD38 IgG1 antibody", "values": [{"measurement": "comparable depletion of NK cells (to >90% with AB79)", "setting": "NK cells", "value": "not achieved"}, {"measurement": "incidence of IRR, Grade 3 or higher", "setting": "[2]; IV administration", "value": "≤ 9", "unit": "%"}, {"measurement": "incidence of IRR, all grades", "setting": "[2]; IV administration", "value": "≥ 50", "unit": "%"}, {"measurement": "incidence of IRR, Grade 3 or higher", "setting": "[2]; [4]", "value": 8, "unit": "%"}, {"measurement": "incidence of IRR, all grades", "setting": "[2]; [4]", "value": 16, "unit": "%"}, {"measurement": "Grade 3 and 4 TEAE: hypertension", "setting": "[2]; SC", "value": 8, "unit": "%"}, {"measurement": "Grade 3 and 4 TEAE: lymphopenia", "setting": "[2]; SC", "value": 20, "unit": "%"}, {"measurement": "Grade 3 and 4 TEAE: neutropenia", "setting": "[2]; SC", "value": 8, "unit": "%"}, {"measurement": "Grade 3 and 4 TEAE: thrombocytopenia", "setting": "[2]; SC", "value": 8, "unit": "%"}, {"measurement": "injection site reactions (induration, erythema, discoloration, hematomas)", "setting": "[2]; SC", "value": "16.7 % of patients"}, {"measurement": "persistence of positive indirect Coombs test results after the last infusion", "setting": "[2]; binding to CD38 on RBCs", "value": "up to 6 months"}, {"measurement": "patients with severe and serious IRRs, including anaphylactic reactions", "setting": "[2]; human, in vivo", "value": "approximately half"}, {"measurement": "binding to RBCs and platelets", "setting": "RBCs and platelets", "value": "strongly bind"}, {"measurement": "mean Cmax", "setting": "[3]", "value": "> 500", "unit": "µg/mL"}]}, {"substance": "isatuximab: anti-CD38 IgG1 antibody", "values": [{"measurement": "binding to RBCs and platelets", "setting": "RBCs and platelets", "value": "strongly bind"}]}]}
